This note sets out measurements from patent US20220112276A1 (Janssen / Centocor, published 2022).

In test [1] the target is T1, human pIgR extracellular domain (ECD) (human, UniProt P01833 19-638).
T1 construct: Bought from R&D Systems (Cat 2717-PG-050); also called hpIgR ECD
The test is described as follows: SPR, VHH captured by anti-Fc, ECD analyte. The method, then:
(§1) In an assay, two flow cells of the SPR were used, in which the flow cell 1 ran the buffer reference, and the flow cell 2 ran the analyte. […] The HBSP (GE) buffer was followed at a flow rate of 30 μL/min. Then, the VHHs were captured on the anti-human Fc protein surface at 0.5 ug/ml (˜200-300 RU) on the flow cell 2. The running buffer was changed to HBSP with 100 ug/ml BSA after the capture. Next, the pIgR extracellular domains were used as analyte and loaded in a series of concentrations, starting at 30 nM with further 3-fold dilution series.
(§2) The extracellular domains were prepared as follows: cynomolgus monkey and rat extracellular domains were produced and characterized in house; mouse and human pIgR extracellular domains were purchased from R&D Systems (Cat #2800-PG-050 & 2717-PG-050 respectively). The pIgR extracellular domains were injected from low to high concentration using a single-cycle kinetics method. The off-rate was monitored at 30 minutes after the last or highest concentration injection. The reference run was completed under the same conditions except that the pIgR injection was replaced by buffer injection.
(§3) The raw data were processed by subtracting two sets of reference data from the response data: (1) reference flow cell 1 subtracted from sample flow cell 2; and (2) buffer blank run subtracted from experimental run. The processed data at all concentrations for each VHH were globally fit to a 1:1 simple Langmuir binding model to extract estimates of the kinetic constants (kₒₙ, koff) and affinity constants (KD).

In test [2] the target is T2, cynomolgus monkey pIgR extracellular domain (cynomolgus monkey, UniProt A0A2K5WMU9 19-638).
T2 construct: extracellular domain
The test is described as follows: SPR, VHH captured by anti-Fc, ECD analyte. Here is the method: as §1, §2, §3

T1 sequence (P01833 other isoform, or with tags, fused parts or gaps): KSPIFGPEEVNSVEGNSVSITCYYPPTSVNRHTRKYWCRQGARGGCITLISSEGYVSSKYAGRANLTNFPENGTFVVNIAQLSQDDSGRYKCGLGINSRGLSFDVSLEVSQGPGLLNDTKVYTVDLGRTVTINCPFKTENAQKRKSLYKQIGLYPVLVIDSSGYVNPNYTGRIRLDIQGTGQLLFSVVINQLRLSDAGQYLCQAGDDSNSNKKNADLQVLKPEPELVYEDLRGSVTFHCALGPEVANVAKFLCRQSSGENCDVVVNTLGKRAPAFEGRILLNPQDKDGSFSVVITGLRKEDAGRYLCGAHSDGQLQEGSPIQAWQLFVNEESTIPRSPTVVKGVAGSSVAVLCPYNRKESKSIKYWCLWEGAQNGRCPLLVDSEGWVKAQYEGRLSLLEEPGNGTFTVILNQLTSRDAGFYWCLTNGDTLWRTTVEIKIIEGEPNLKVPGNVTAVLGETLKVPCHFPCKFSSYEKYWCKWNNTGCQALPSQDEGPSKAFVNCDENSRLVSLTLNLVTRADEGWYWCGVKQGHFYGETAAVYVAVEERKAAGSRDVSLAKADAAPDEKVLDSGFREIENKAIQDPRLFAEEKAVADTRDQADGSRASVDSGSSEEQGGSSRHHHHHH
T2 sequence (A0A2K5WMU9 entry or part of it): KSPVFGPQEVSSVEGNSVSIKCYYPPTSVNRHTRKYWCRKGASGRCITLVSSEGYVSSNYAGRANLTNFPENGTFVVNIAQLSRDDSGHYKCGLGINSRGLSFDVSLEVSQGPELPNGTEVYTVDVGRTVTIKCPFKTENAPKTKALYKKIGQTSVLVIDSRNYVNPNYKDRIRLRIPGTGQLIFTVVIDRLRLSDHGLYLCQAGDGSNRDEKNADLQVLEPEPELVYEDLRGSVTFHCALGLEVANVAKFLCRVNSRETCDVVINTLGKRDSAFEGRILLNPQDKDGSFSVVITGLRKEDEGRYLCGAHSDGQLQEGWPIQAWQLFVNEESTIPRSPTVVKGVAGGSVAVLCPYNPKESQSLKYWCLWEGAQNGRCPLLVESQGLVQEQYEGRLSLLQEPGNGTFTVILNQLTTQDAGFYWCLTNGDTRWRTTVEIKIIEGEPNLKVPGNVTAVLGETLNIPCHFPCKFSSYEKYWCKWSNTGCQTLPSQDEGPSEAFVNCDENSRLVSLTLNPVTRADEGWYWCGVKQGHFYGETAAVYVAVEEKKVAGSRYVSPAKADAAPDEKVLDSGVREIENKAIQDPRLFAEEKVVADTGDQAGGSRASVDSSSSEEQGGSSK

B1: 01F01R2 VHH Mono-Fc (Fc fusion)
chain: QVQLVESGGGLVQAGGSLRLSCAASGRTFSSNPMGWFRQAPGKEREFVAAISWSGGGTYYADSVKGRFTISRDNAKNTVTLQMNSLKPEDTAVYYCASRDYSDPISLWVEDREYDYWGQGTQVTVSSSPAPELLGGPSVFLFPPKPKDTLMISRTPEVTCVVVDVSHEDPEVKFNWYVDGVEVHNAKTKPREEQYNSTYRVVSVLTVLHQDWLNGKEYKCKVSNKALPAPIEKTISKAKGQPREPQVYTKPPSREEMTKNQVSLSCLVKGFYPSDIAVEWESNGQPENNYKTTVPVLDSDGSFRLASYLTVDKSRWQQGNVFSCSVMHEALHNHYTQKSLSLSPGK
As usually defined, the Kd is a measure of binding affinity in units of concentration. B1: the dissociation constant (Kd) came to 2.13 nM in test [1] and 4.08 nM in test [2].

B2: 03B07R3 VHH Mono-Fc (Fc fusion)
chain: QVQLVESGGGLVQAGGSLRLSCAASGRTFSSNPMGWFRQAPGKEREFVAAISWSGGGTYYADSVKGRFTISRDNAKNTVTLQMNSLKPEDTAVYYCASRDYSDPISLWVEDREYDYWGQGTLVTVSSSPAPELLGGPSVFLFPPKPKDTLMISRTPEVTCVVVDVSHEDPEVKFNWYVDGVEVHNAKTKPREEQYNSTYRVVSVLTVLHQDWLNGKEYKCKVSNKALPAPIEKTISKAKGQPREPQVYTKPPSREEMTKNQVSLSCLVKGFYPSDIAVEWESNGQPENNYKTTVPVLDSDGSFRLASYLTVDKSRWQQGNVFSCSVMHEALHNHYTQKSLSLSPGK
Consider B2, for which the Kd in test [1] came out at 2.33 nM; in test [2], 4.26 nM.

B3: 01A09R2 VHH Mono-Fc (Fc fusion)
chain: EVQLVESGGGLVQAGGSLRLSCAASGRTFSSNPMGWFRQAPGKEREFVAAISWSGGGTYYADSVKGRFTISRDNAKNTVTLQMNSLKPEDTAVYYCASRDYSDPISLWVEDREYDYWGQGTQVTVSSSPAPELLGGPSVFLFPPKPKDTLMISRTPEVTCVVVDVSHEDPEVKFNWYVDGVEVHNAKTKPREEQYNSTYRVVSVLTVLHQDWLNGKEYKCKVSNKALPAPIEKTISKAKGQPREPQVYTKPPSREEMTKNQVSLSCLVKGFYPSDIAVEWESNGQPENNYKTTVPVLDSDGSFRLASYLTVDKSRWQQGNVFSCSVMHEALHNHYTQKSLSLSPGK
B3: the Kd came to 2.14 nM in test [1] and 4.02 nM in test [2].

B4: 03D05R3 VHH Mono-Fc (Fc fusion)
chain: EVQLVESGGGLVQAGGSLRLSCAASGRTFSSNPMGWFRQAPGKEREFVAAISWSGGGTYYADSVKGRFTISRDNAKNTVTLQMNSLKPEDTAVYYCASRDYSDPISLWVEGREYDYWGQGTLVTVSSSPAPELLGGPSVFLFPPKPKDTLMISRTPEVTCVVVDVSHEDPEVKFNWYVDGVEVHNAKTKPREEQYNSTYRVVSVLTVLHQDWLNGKEYKCKVSNKALPAPIEKTISKAKGQPREPQVYTKPPSREEMTKNQVSLSCLVKGFYPSDIAVEWESNGQPENNYKTTVPVLDSDGSFRLASYLTVDKSRWQQGNVFSCSVMHEALHNHYTQKSLSLSPGK
B4: the Kd worked out at 2.14 nM in test [1] and 4.59 nM in test [2].

B5: 01B10R3LS VHH Mono-Fc (Fc fusion)
chain: QVQLVESGGGLVQAGGSLRLSCAASGRTIYGYVMGWFRQAPGKEREFVARIDWSGSSTDYADSVKGRFTISRDNAKNTVYLQMNSLKPEDTAVYYCAGSAYYSGYVTHRDFGSWGQGTQVTVSSSPAPELLGGPSVFLFPPKPKDTLMISRTPEVTCVVVDVSHEDPEVKFNWYVDGVEVHNAKTKPREEQYNSTYRVVSVLTVLHQDWLNGKEYKCKVSNKALPAPIEKTISKAKGQPREPQVYTKPPSREEMTKNQVSLSCLVKGFYPSDIAVEWESNGQPENNYKTTVPVLDSDGSFRLASYLTVDKSRWQQGNVFSCSVMHEALHNHYTQKSLSLSPGK
B5: the values for the Kd in test [1] and in test [2] were 38 nM and 192 nM, respectively.

B6: 01G09R2 VHH Mono-Fc (Fc fusion)
chain: EVQLVESGGGLVQAGGSLRLSCAASGRTINTYVMGWFRQAPGKEREFVARIDWSGSSTDYADSAKGRFTISRDNAKNTVYLQMNSLKPEDTAVYYCAGSAYYSGYVTHRDFGSWGQGTLVTVSSSPAPELLGGPSVFLFPPKPKDTLMISRTPEVTCVVVDVSHEDPEVKFNWYVDGVEVHNAKTKPREEQYNSTYRVVSVLTVLHQDWLNGKEYKCKVSNKALPAPIEKTISKAKGQPREPQVYTKPPSREEMTKNQVSLSCLVKGFYPSDIAVEWESNGQPENNYKTTVPVLDSDGSFRLASYLTVDKSRWQQGNVFSCSVMHEALHNHYTQKSLSLSPGK
With B6, the Kd in test [1] came to 6.58 nM; in test [2] it was 106 nM.

B7: 01D07R3LS VHH Mono-Fc (Fc fusion)
chain: QVQLVESGGGLVQAGGSLRLSCAASGRTINTYVMGWFRQAPGKEREFVARIDWSGSSTDYADSVKGRFTISRDNAKNTVYLQMNSLKPEDTAVYYCAGSAYYSGYVTHRDFGSWGQGTLVTVSSSPAPELLGGPSVFLFPPKPKDTLMISRTPEVTCVVVDVSHEDPEVKFNWYVDGVEVHNAKTKPREEQYNSTYRVVSVLTVLHQDWLNGKEYKCKVSNKALPAPIEKTISKAKGQPREPQVYTKPPSREEMTKNQVSLSCLVKGFYPSDIAVEWESNGQPENNYKTTVPVLDSDGSFRLASYLTVDKSRWQQGNVFSCSVMHEALHNHYTQKSLSLSPGK
Turning to B7, the results for the Kd in test [1] and in test [2] were 9.78 nM and 103 nM, respectively.

B8: 01H11R3LS VHH Mono-Fc (Fc fusion)
chain: QVQLVESGGGLVQAGGSLRLSCAASGRTINGYVMGWFRQAPGKEREFVARIDWSGSSTDYADSVKGRFTISRDNAKTTVYLQTNSLKPEDTAVYYCAGSAYYSGYVTHRDFGSWGQGTQVTVSSSPAPELLGGPSVFLFPPKPKDTLMISRTPEVTCVVVDVSHEDPEVKFNWYVDGVEVHNAKTKPREEQYNSTYRVVSVLTVLHQDWLNGKEYKCKVSNKALPAPIEKTISKAKGQPREPQVYTKPPSREEMTKNQVSLSCLVKGFYPSDIAVEWESNGQPENNYKTTVPVLDSDGSFRLASYLTVDKSRWQQGNVFSCSVMHEALHNHYTQKSLSLSPGK
Take B8: the Kd in test [1] turned out to be 8.42 nM; in test [2], 252 nM.

B9: 01F03R2 VHH Mono-Fc (Fc fusion)
chain: QVQLVESGGGLVQAGGSLRLSCAASGRTFSSYAMGWFRQAPGKEREFVAVISWSGGSTYYADSVKGRFTISRDNAKNTVYLQMNSLKPEDTAVYYCASGEQPGSNRPYIPEQPIEFMPTDYPSWYDYWGQGTQVTVSSSPAPELLGGPSVFLFPPKPKDTLMISRTPEVTCVVVDVSHEDPEVKFNWYVDGVEVHNAKTKPREEQYNSTYRVVSVLTVLHQDWLNGKEYKCKVSNKALPAPIEKTISKAKGQPREPQVYTKPPSREEMTKNQVSLSCLVKGFYPSDIAVEWESNGQPENNYKTTVPVLDSDGSFRLASYLTVDKSRWQQGNVFSCSVMHEALHNHYTQKSLSLSPGK
Consider B9, for which the Kd in test [1] worked out at 1.36 nM; in test [2], 3.57 nM.

B10: 01B01R3 VHH Mono-Fc (Fc fusion)
chain: QVQLVESGGGLVQAGGSLRLSCAASGRTFSSYAMGWFRQAPGKEREFVAVISWSGGSTYYADSVKGRFTISRDNAKNTVYLQMNSLKPEDTAVYYCASGEQPGSNRPYIPEQPIEFMPTDYPSWYDYWGQGTLVTVSSSPAPELLGGPSVFLFPPKPKDTLMISRTPEVTCVVVDVSHEDPEVKFNWYVDGVEVHNAKTKPREEQYNSTYRVVSVLTVLHQDWLNGKEYKCKVSNKALPAPIEKTISKAKGQPREPQVYTKPPSREEMTKNQVSLSCLVKGFYPSDIAVEWESNGQPENNYKTTVPVLDSDGSFRLASYLTVDKSRWQQGNVFSCSVMHEALHNHYTQKSLSLSPGK
B10: the Kd in test [1] amounted to 1.38 nM; in test [2], 3.78 nM.

B11: 03D09R3 VHH Mono-Fc (Fc fusion)
chain: QVQLVESGGGLVQAGGSLRLSCAASGRTVSSVAMGWFRQAPGKEREFVATISWTGGSTYYADSVKGRFTISRDNAKNTAYLQMNSLKPEDTAVYYCAAGYPADPIALMTLRYEYDYWGQGTLVTVSSSPAPELLGGPSVFLFPPKPKDTLMISRTPEVTCVVVDVSHEDPEVKFNWYVDGVEVHNAKTKPREEQYNSTYRVVSVLTVLHQDWLNGKEYKCKVSNKALPAPIEKTISKAKGQPREPQVYTKPPSREEMTKNQVSLSCLVKGFYPSDIAVEWESNGQPENNYKTTVPVLDSDGSFRLASYLTVDKSRWQQGNVFSCSVMHEALHNHYTQKSLSLSPGK
For the molecule B11, the Kd came to 0.072 nM in test [1] and 0.004 nM in test [2].

B12: 01D01R3 VHH Mono-Fc (Fc fusion)
chain: EVQLVESGGGLVQAGGSLRLSCAASGRTFSVYGMGWFRQAPGQERAFVAAISWSDGSTYYADSVKGRFTISRDNAKNTMYLQMNSLKPEDTAVYFCAADLTGWGLDADVSEYDYWGQGTQVTVSSSPAPELLGGPSVFLFPPKPKDTLMISRTPEVTCVVVDVSHEDPEVKFNWYVDGVEVHNAKTKPREEQYNSTYRVVSVLTVLHQDWLNGKEYKCKVSNKALPAPIEKTISKAKGQPREPQVYTKPPSREEMTKNQVSLSCLVKGFYPSDIAVEWESNGQPENNYKTTVPVLDSDGSFRLASYLTVDKSRWQQGNVFSCSVMHEALHNHYTQKSLSLSPGK
Turning to B12, the results for the Kd in test [1] and in test [2] were 5.96 nM and 375 nM, respectively.

B13: 01D08R3 VHH Mono-Fc (Fc fusion)
chain: QVQLVESGGGLVQAGDSLRLSCAASGRTSSLYNMGWFRQAPGQEREFVAAIHWGGGRTYYADSVKGRFTISRDNAKNTVYLQMNSLEPGDTANYYCAARRAPELLDDYKQKPEEIGAYHYWGQGTQVTVSSSPAPELLGGPSVFLFPPKPKDTLMISRTPEVTCVVVDVSHEDPEVKFNWYVDGVEVHNAKTKPREEQYNSTYRVVSVLTVLHQDWLNGKEYKCKVSNKALPAPIEKTISKAKGQPREPQVYTKPPSREEMTKNQVSLSCLVKGFYPSDIAVEWESNGQPENNYKTTVPVLDSDGSFRLASYLTVDKSRWQQGNVFSCSVMHEALHNHYTQKSLSLSPGK
Regarding B13, the values for the Kd in test [1] and in test [2] were 0.195 nM and 448 nM, respectively.
